Laboratory results from patent US20170198014A1 (UNIVERSITY WASHINGTON THROUGH ITS CENTER FOR …, published 2017).

B1: Hsc1 (SEQ ID NO:135) fused to HAA.1c (SEQ ID NO:227) via the triLong linker (SEQ ID NO: 352), trimer (designed binder)
chain: MEEVVLITVPSEEVARTIAKALVEERLAACVNIVPGLTSIYRWQGEVVEDQELLLLVKTTTHAFPKLKERVKALHPYTVPEIVALPIAQGNQEYLDWLRENAGGGGSGGSGIVNVPNCNTTKYQQLARTAVAIYNYHEQAHLTFVENLNCKEQLGEGDYYYITLAATDDAGKKAIYEAKIGVVESAGWTGVEEFKLV
B2: HAA.1 c fused to Hsc1-EA via a triLong linker, trimer (designed binder)
chain: MEEVVLITVPSEEVARTIAKALVEERLAACVNIVPGLTSIYRWQGEVVEDQELLLLVKTTTHAFPKLKERVKALHPYTVPEIVALPIAQGNQEYLDWLRENAGGGGSGGSGIVNVPNCNTTKYQQLARTAVAIYNYHEQAHLTFVENLNCKEQGNYYYITLAATDDAGKKAIYEAKIGVVESAGWTGVEEFKLV

Assays:
[1] = molecular target: hemagglutinin H1 (A/Solomon Islands/3/2006) (influenza A virus A/Solomon …); assay: BLI (Octet), biotinylated HA on streptavidin sensors
[2] = molecular target: T1, hemagglutinin H3 (A/Hong Kong/1/1968-H3N2) (influenza A virus A/Hong Kong/1/1968 …, UniProt Q91MA7 27-521); assay: as above
[3] = molecular target: T1, hemagglutinin H3 (A/Hong …); assay: BLI (FIG. 5)

| Binder | Kd [1] [nM] | Kd [2] [nM] | Kd [3] [nM] |
| --- | --- | --- | --- |
| B1 | < 1 | < 1 |  |
| B2 |  |  | < 1 |
